Molecular target: T1, carboxyterminal peptide of PD-L1 (SEQ ID NO: 1, RLRKGRMMDVKKCGIQDTNSKKQSDTHLEET) (human)
T1 construct: The immunogen was the KLH-coupled peptide; also called immunogen
T1 peptide: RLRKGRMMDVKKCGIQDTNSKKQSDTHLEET
Assay: ELISA, wells coated with the peptide immunogen

- binding result: binds
B1: inventive antibody clone MKP1A07310 (rabbit monoclonal recombinant anti-PD-L1 antibody) (antibody, V domains shown)
VH: QEQLVESGGGLVTPGGSLTLTCTVSTIDLSTFAISWVRQAPGKGLEWIGTINTDLTTYYVNWAKGRFTISKTSSTTVDLKMTGLTIEDTATYFCARKLFGNGNVWGPGTLVTVSS
VL: QVLTQTPSPVSASVGSTVTINCQASQSLHRNNYLSWFQQKPGQPPKQLIYQASTLASGVSSRFSGSGSGTQFTLTISDVVCDDAATYYCLGGVSGGPYPFGGGTEVVVKG
notes: Rabbit monoclonal, produced as recombinant antibody in HEK-293 cells; VH 110, VL 111) and calls clone MKP1A07310 'the inventive antibody'; also called MKP1A7310; MKP-1A-73-10

— patent publication US20190211104A1 (Merck KGaA, published 2019)
